Measured values published in patent US20210161943A1, “PAK4 INHIBITORS AND METHODS OF USE” (THE REGENTS OF THE UNIVERSITY OF CALIFORNIA, priority 2018, published 2021).

B1: Wnt-3a: Wnt-3a (R&D Systems), used at 200 ng/mL (protein, UniProt P56704 19-352, looked up)
Protein Wnt-3a: SYPIWWSLAVGPQYSSLGSQPILCASIPGLVPKQLRFCRNYVEIMPSVAEGIKIGIQECQHQFRGRRWNCTTVHDSLAIFGPVLDKATRESAFVHAIASAGVAFAVTRSCAEGTAAICGCSSRHQGSPGKGWKWGGCSEDIEFGGMVSREFADARENRPDARSAMNRHNNEAGRQAIASHMHLKCKCHGLSGSCEVKTCWWSQPDFRAIGDFLKDKYDSASEMVVEKHRESRGWVETLRPRYTYFKVPTERDLVYYEASPNFCEPNPETGSFGTRDRTCNVSSHGIDGCDLLCCGRGHNARAERRREKCRCVFHWCCYVSCQECTRVYDVHTCK

How the values were obtained:
MC38 WT tumors = assay: Tumor growth of MC38 WT colon adenocarcinoma tumors in C57BL/6 mice; type: in vivo; conditions: for tumor growth versus anti-PD-1 monotherapy: MC38 WT tumors, PAK4 inhibitor twice daily from days 4 to 7, P<0.05 days 7, 10 (day 14 only combination)
Experimental: All mouse studies were performed under UCLA Animal Research Committee protocol #2004-159-23. C57BL/6 mice were bred and kept under defined-flora pathogen-free conditions at the Association for Assessment and Accreditation of Laboratory Animal Care approved animal facility of the Division of Experimental Radiation Oncology, UCLA. To study the in vivo effect of PD-1 blockade in anti-tumor response and immune cell infiltration, we subcutaneously (s.c.) injected 0.3×10^6 B16 PAK4 KO melanoma cells or MC38 PAK4 KO cells into the flanks of C57BL/6 syngeneic mice. 96 hours after tumor injection mice were randomly assigned into the different groups. Anti PD-1 (Cat. No. BE0146, clone RMP1-14, BioXCell, West Lebanon, N.H.) treatment was injected intraperitoneally three times per week at 200 μg per dose. For CD8 depletion studies, we administered anti-CD8 (Cat. No. BE0117, clone YST 169.4, BioXCell) one day before anti-PD1 treatment and then it was co-administered with anti-PD1 for a total of four doses. Splenocytes from control and CD8 depleted mice were taken to validate CD8 depletion efficacy (FIGS. 14-15). To study the combination effects of PAK4 inhibition (KPT-9274) and anti-PD-1 (Cat. No. BE0146, clone RMP1-14, BioXCell) in immune cell infiltration and anti-tumor response, 0.5×10^6 B16 WT or MC38 WT cells were injected s.c. into the flanks of C57BL/6 mice. 96 hours after tumor injection mice were randomly assigned into the different groups. PAK4 inhibitor was administered twice a day by oral gavage at 150 mg/kg while anti-PD-1 treatment was administered as described above. Tumor progression was monitored three times per week by measuring two perpendicular dimensions with a calliper.

[1] = test system: Wnt/β-catenin-mediated transcription in B16 WT CRISPR control cells; assay: Topflash/Fopflash WNT activity luciferase assay, B16 WT CRISPR control cells; type: cell-based, murine; conditions: Wnt-3a 200 ng/mL, 8 hours
Experimental: (§1) For Topflash WNT activity assay cells were plated in 24 well plates and were co-transfected with pSV-β-galactosidase control vector (PR-E1081, Promega, Madison, Wis.) along with either pTopflash (Addgene, Cat. No. 12456) or pFopflash (Addgene, Cat. No. 12457). 24 hours after transfection, cells were treated with Wnt-3a (R&D Systems, Minneapolins, Minn.) at 200 ng/mL. After 8 hours, cells were harvested using Reporter Lysis Buffer (Promega, Cat. No. PR-E4030) and luciferase activity was measured using Bright-Glo Luciferase Assay System (Promega, Cat. No. PR-E2610) and Beta-Glo Assay System (Promega, Cat. No. PR-E4720). Luciferase activity was normalized to its corresponding Beta-Glo activity to account for transfection efficiency.

[2] = test system: Wnt/β-catenin-mediated transcription in PAK4 KO cells; assay: Topflash/Fopflash WNT activity luciferase assay, B16 PAK4 KO cells; type: cell-based, murine; conditions: Wnt-3a 200 ng/mL, 8 hours
Experimental: as §1

| Molecule | tumor growth versus anti-PD-1 monotherapy (MC38 WT tumors; listed as PAK4i) | tumor growth versus anti-PD-1 monotherapy (MC38 WT tumors; listed as PAK4 inhibitor) | PAK4 inhibitor associated toxicity (MC38 WT tumors; mice bearing MC38 WT tumors, PAK4 inhibitor 150 mg/kg twice daily oral gavage, days 4 to 7) | Topflash luciferase activity ([1]; B16 WT CRISPR control cells) | Fopflash luciferase activity (mutant TCF-binding sites) ([1]; B16 WT cells) | induction of Topflash luciferase activity ([2]; PAK4 KO cells versus B16 WT control) | Fopflash luciferase activity (mutant TCF-binding sites) ([2]; PAK4 KO cells) |
| --- | --- | --- | --- | --- | --- | --- | --- |
| Nc1ccc(/C=C/C(=O)NCc2cc3cc(-c4ccc(C(=O)N5CCC(F)(F)CC5)cc4)cc(-c4ccc(F)cc4)c3o2)cn1 [KPT-9274] | significant decreased tumor growth compared to anti-PD-1 alone | decreased tumor growth compared to the anti-PD-1 monotherapy group | discontinued due to PAK4i associated toxicity | – | – | – | – |
| B1 | – | – | – | significantly induced | did not induce | significantly reduced | did not induce |
